Numbered stars: 1 amine (or outer) side, 2 acyl side, 3 side chain; on linkers, the order of the positions; unused ones are H or OH. Bridge positions count the residues as written; N and C are the ends. * marks the point of attachment. C20 diacid = O=C(O)CCCCCCCCCCCCCCCCCCC(=O)*; γGlu = O=C(O)[C@H](CCC(=O)[*:2])N[*:1]
T1: rat amylin receptor (rat calcitonin receptor + rat RAMP 3) (rat, UniProt P32214 25-516; Q9JJ73 23-147)
T1 construct: whole, on cells; Used as membranes prepared from the transfected cells; also called rAmylin-R; rat amylin 3(a) receptor
T1 sequence (looked up) 1: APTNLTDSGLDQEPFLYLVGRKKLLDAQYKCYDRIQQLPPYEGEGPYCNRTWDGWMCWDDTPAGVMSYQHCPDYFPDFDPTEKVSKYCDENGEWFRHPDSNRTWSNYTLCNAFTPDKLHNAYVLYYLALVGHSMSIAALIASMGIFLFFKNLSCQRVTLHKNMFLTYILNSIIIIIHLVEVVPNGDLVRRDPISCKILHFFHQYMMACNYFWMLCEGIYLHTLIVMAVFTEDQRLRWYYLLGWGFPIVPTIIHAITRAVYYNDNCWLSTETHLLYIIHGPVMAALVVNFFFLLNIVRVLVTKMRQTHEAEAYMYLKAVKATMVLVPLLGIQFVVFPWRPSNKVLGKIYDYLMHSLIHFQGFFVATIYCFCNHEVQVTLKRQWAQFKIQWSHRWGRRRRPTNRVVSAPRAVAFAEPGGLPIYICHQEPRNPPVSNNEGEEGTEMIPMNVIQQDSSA
T1 sequence (looked up) 2: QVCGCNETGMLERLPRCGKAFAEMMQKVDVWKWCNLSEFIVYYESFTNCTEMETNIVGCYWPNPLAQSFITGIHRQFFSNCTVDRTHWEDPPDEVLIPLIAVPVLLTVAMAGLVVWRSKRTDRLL

T2: rat calcitonin receptor (rat, UniProt P32214 25-516)
T2 construct: whole, on cells; Used as membranes prepared from the transfected cells; also called rCTR; rat calcitonin (a) receptor
T2 sequence (looked up): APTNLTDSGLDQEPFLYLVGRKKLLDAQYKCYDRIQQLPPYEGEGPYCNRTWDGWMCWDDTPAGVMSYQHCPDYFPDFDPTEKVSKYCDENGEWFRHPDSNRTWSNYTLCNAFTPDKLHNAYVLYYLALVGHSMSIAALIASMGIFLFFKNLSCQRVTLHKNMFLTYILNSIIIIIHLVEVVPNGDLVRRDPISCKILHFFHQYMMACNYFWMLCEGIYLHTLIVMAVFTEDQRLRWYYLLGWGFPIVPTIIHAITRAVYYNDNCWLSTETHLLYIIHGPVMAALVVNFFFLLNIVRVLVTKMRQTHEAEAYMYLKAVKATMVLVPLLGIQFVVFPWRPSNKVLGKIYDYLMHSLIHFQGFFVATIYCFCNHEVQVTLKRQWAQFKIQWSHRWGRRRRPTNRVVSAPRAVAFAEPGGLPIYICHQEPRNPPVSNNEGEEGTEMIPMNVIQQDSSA

T3: human calcitonin receptor (human, UniProt P30988 25-474)
T3 construct: whole, on cells; Used as membranes prepared from the transfected cells (Assay VII); also called hCTR; hCT
T3 sequence (looked up): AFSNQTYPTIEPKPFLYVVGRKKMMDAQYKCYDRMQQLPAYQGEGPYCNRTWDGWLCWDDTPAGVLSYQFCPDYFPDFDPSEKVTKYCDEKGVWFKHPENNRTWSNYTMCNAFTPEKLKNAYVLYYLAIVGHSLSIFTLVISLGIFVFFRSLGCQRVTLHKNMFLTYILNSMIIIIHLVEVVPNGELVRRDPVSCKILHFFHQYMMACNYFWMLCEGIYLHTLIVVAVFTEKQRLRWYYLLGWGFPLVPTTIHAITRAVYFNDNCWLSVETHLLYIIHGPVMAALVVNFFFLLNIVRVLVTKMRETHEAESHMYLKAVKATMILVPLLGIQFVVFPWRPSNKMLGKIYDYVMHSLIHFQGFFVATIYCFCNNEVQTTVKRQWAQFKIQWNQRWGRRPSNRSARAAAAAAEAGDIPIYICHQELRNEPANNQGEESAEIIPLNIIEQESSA


How the values were obtained:
[1] = target: T1, rat amylin receptor (rat calcitonin …); experiment: SPA competition with 125I-rat amylin, membranes of BHK cells with rat calcitonin receptor + rat RAMP3 (Assay VI)
[2] = target: T2, rat calcitonin receptor; experiment: SPA competition with 125I-calcitonin, membranes of BHK cells with rat calcitonin receptor (Assay VIII)
[3] = target: T2, rat calcitonin receptor; experiment: ratio IC50 rat calcitonin receptor / IC50 rat amylin receptor (Assays VIII and VI)
[4] = target: T3, human calcitonin receptor; experiment: ratio IC50 human calcitonin receptor / IC50 human amylin receptor (Assays VII and V)
Method in brief: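 IC₅₀ values were derived by one-site competition analysis of SPA counts. Cell membranes (35 ng/μL) with SPA beads were incubated with test compounds for 120 min at 25° C in Hepes buffer, pH 7.4, containing CaCl2, MgCl₂, OA and Tween20.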

Binder | IC50 [1] [nM] | IC50 [2] [nM] | Ratio rCT/rAmylin binding [3] | Ratio hCT/hAmylin binding [4]
{C20 diacid-γGlu}-KCNTATCATQRLAEFLRHSSPNFGAIPSSTNVGSETY-NH2 (disulfide 2-7; SMILES CC[C@H](C)[C@H](NC(=O)[C@H](C)NC(=O)CNC(=O)[C@H](Cc1ccccc1)NC(=O)[C@H](CC(N)=O)NC(=O)[C@@H]1CCCN1C(=O)[C@H](CO)NC(=O)[C@H](CO)NC(=O)[C@H](Cc1c[nH]cn1)NC(=O)[C@H](CCCNC(=N)N)NC(=O)[C@H](CC(C)C)NC(=O)[C@H](Cc1ccccc1)NC(=O)[C@H](CCC(=O)O)NC(=O)[C@H](C)NC(=O)[C@H](CC(C)C)NC(=O)[C@H](CCCNC(=N)N)NC(=O)[C@H](CCC(N)=O)NC(=O)[C@@H](NC(=O)[C@H](C)NC(=O)[C@@H]1CSSC[C@H](NC(=O)[C@H](CCCCN)NC(=O)CC[C@H](NC(=O)CCCCCCCCCCCCCCCCCCC(=O)O)C(=O)O)C(=O)N[C@@H](CC(N)=O)C(=O)N[C@@H]([C@@H](C)O)C(=O)N[C@@H](C)C(=O)N[C@@H]([C@@H](C)O)C(=O)N1)[C@@H](C)O)C(=O)N1CCC[C@H]1C(=O)N[C@@H](CO)C(=O)N[C@@H](CO)C(=O)N[C@H](C(=O)N[C@@H](CC(N)=O)C(=O)N[C@H](C(=O)NCC(=O)N[C@@H](CO)C(=O)N[C@@H](CCC(=O)O)C(=O)N[C@H](C(=O)N[C@@H](Cc1ccc(O)cc1)C(N)=O)[C@@H](C)O)C(C)C)[C@@H](C)O, Derivative of human amylin; also called compound 22) | 2.19 | 62.5 | 28.5 | 12.3
{C20 diacid-γGlu}-KCNTATCATQRLAHFLRHSSPNFGAIPSSTNVGSETY-NH2 (disulfide 2-7; SMILES CC[C@H](C)[C@H](NC(=O)[C@H](C)NC(=O)CNC(=O)[C@H](Cc1ccccc1)NC(=O)[C@H](CC(N)=O)NC(=O)[C@@H]1CCCN1C(=O)[C@H](CO)NC(=O)[C@H](CO)NC(=O)[C@H](Cc1c[nH]cn1)NC(=O)[C@H](CCCNC(=N)N)NC(=O)[C@H](CC(C)C)NC(=O)[C@H](Cc1ccccc1)NC(=O)[C@H](Cc1c[nH]cn1)NC(=O)[C@H](C)NC(=O)[C@H](CC(C)C)NC(=O)[C@H](CCCNC(=N)N)NC(=O)[C@H](CCC(N)=O)NC(=O)[C@@H](NC(=O)[C@H](C)NC(=O)[C@@H]1CSSC[C@H](NC(=O)[C@H](CCCCN)NC(=O)CC[C@H](NC(=O)CCCCCCCCCCCCCCCCCCC(=O)O)C(=O)O)C(=O)N[C@@H](CC(N)=O)C(=O)N[C@@H]([C@@H](C)O)C(=O)N[C@@H](C)C(=O)N[C@@H]([C@@H](C)O)C(=O)N1)[C@@H](C)O)C(=O)N1CCC[C@H]1C(=O)N[C@@H](CO)C(=O)N[C@@H](CO)C(=O)N[C@H](C(=O)N[C@@H](CC(N)=O)C(=O)N[C@H](C(=O)NCC(=O)N[C@@H](CO)C(=O)N[C@@H](CCC(=O)O)C(=O)N[C@H](C(=O)N[C@@H](Cc1ccc(O)cc1)C(N)=O)[C@@H](C)O)C(C)C)[C@@H](C)O, Derivative of human amylin; also called compound 30) | 3.14 | 114 | 36.1 | 23.6
{C20 diacid-γGlu}-KCNTATCATQRLAEFLRHSSPNFGAILPSTNVGSETY-NH2 (disulfide 2-7; SMILES CC[C@H](C)[C@H](NC(=O)[C@H](C)NC(=O)CNC(=O)[C@H](Cc1ccccc1)NC(=O)[C@H](CC(N)=O)NC(=O)[C@@H]1CCCN1C(=O)[C@H](CO)NC(=O)[C@H](CO)NC(=O)[C@H](Cc1c[nH]cn1)NC(=O)[C@H](CCCNC(=N)N)NC(=O)[C@H](CC(C)C)NC(=O)[C@H](Cc1ccccc1)NC(=O)[C@H](CCC(=O)O)NC(=O)[C@H](C)NC(=O)[C@H](CC(C)C)NC(=O)[C@H](CCCNC(=N)N)NC(=O)[C@H](CCC(N)=O)NC(=O)[C@@H](NC(=O)[C@H](C)NC(=O)[C@@H]1CSSC[C@H](NC(=O)[C@H](CCCCN)NC(=O)CC[C@H](NC(=O)CCCCCCCCCCCCCCCCCCC(=O)O)C(=O)O)C(=O)N[C@@H](CC(N)=O)C(=O)N[C@@H]([C@@H](C)O)C(=O)N[C@@H](C)C(=O)N[C@@H]([C@@H](C)O)C(=O)N1)[C@@H](C)O)C(=O)N[C@@H](CC(C)C)C(=O)N1CCC[C@H]1C(=O)N[C@@H](CO)C(=O)N[C@H](C(=O)N[C@@H](CC(N)=O)C(=O)N[C@H](C(=O)NCC(=O)N[C@@H](CO)C(=O)N[C@@H](CCC(=O)O)C(=O)N[C@H](C(=O)N[C@@H](Cc1ccc(O)cc1)C(N)=O)[C@@H](C)O)C(C)C)[C@@H](C)O, Derivative of human amylin; also called compound 33) | 2.29 | 28.9 | 12.6 | 3.9

Now those with a lower IC50 [1], led by results:

IC50 [1] [nM] | IC50 [2] [nM] | Ratio rCT/rAmylin binding [3] | Ratio hCT/hAmylin binding [4] | Binder
0.619 | 26.5 | 42.8 | 16 | {C20 diacid-γGlu}-KCNTATCATQRLAEFLRHSSPNFGAIPSSTPVGSNTY-NH2 (disulfide 2-7; SMILES CC[C@H](C)[C@H](NC(=O)[C@H](C)NC(=O)CNC(=O)[C@H](Cc1ccccc1)NC(=O)[C@H](CC(N)=O)NC(=O)[C@@H]1CCCN1C(=O)[C@H](CO)NC(=O)[C@H](CO)NC(=O)[C@H](Cc1c[nH]cn1)NC(=O)[C@H](CCCNC(=N)N)NC(=O)[C@H](CC(C)C)NC(=O)[C@H](Cc1ccccc1)NC(=O)[C@H](CCC(=O)O)NC(=O)[C@H](C)NC(=O)[C@H](CC(C)C)NC(=O)[C@H](CCCNC(=N)N)NC(=O)[C@H](CCC(N)=O)NC(=O)[C@@H](NC(=O)[C@H](C)NC(=O)[C@@H]1CSSC[C@H](NC(=O)[C@H](CCCCN)NC(=O)CC[C@H](NC(=O)CCCCCCCCCCCCCCCCCCC(=O)O)C(=O)O)C(=O)N[C@@H](CC(N)=O)C(=O)N[C@@H]([C@@H](C)O)C(=O)N[C@@H](C)C(=O)N[C@@H]([C@@H](C)O)C(=O)N1)[C@@H](C)O)C(=O)N1CCC[C@H]1C(=O)N[C@@H](CO)C(=O)N[C@@H](CO)C(=O)N[C@H](C(=O)N1CCC[C@H]1C(=O)N[C@H](C(=O)NCC(=O)N[C@@H](CO)C(=O)N[C@@H](CC(N)=O)C(=O)N[C@H](C(=O)N[C@@H](Cc1ccc(O)cc1)C(N)=O)[C@@H](C)O)C(C)C)[C@@H](C)O, Derivative of human amylin; also called compound 31)
0.176 | 5.98 | 34 | 10.9 | {C20 diacid-γGlu}-KCNTATCATQRLAEFLRHSSPNFGAIPSSTNVGPNTY-NH2 (disulfide 2-7; SMILES CC[C@H](C)[C@H](NC(=O)[C@H](C)NC(=O)CNC(=O)[C@H](Cc1ccccc1)NC(=O)[C@H](CC(N)=O)NC(=O)[C@@H]1CCCN1C(=O)[C@H](CO)NC(=O)[C@H](CO)NC(=O)[C@H](Cc1c[nH]cn1)NC(=O)[C@H](CCCNC(=N)N)NC(=O)[C@H](CC(C)C)NC(=O)[C@H](Cc1ccccc1)NC(=O)[C@H](CCC(=O)O)NC(=O)[C@H](C)NC(=O)[C@H](CC(C)C)NC(=O)[C@H](CCCNC(=N)N)NC(=O)[C@H](CCC(N)=O)NC(=O)[C@@H](NC(=O)[C@H](C)NC(=O)[C@@H]1CSSC[C@H](NC(=O)[C@H](CCCCN)NC(=O)CC[C@H](NC(=O)CCCCCCCCCCCCCCCCCCC(=O)O)C(=O)O)C(=O)N[C@@H](CC(N)=O)C(=O)N[C@@H]([C@@H](C)O)C(=O)N[C@@H](C)C(=O)N[C@@H]([C@@H](C)O)C(=O)N1)[C@@H](C)O)C(=O)N1CCC[C@H]1C(=O)N[C@@H](CO)C(=O)N[C@@H](CO)C(=O)N[C@H](C(=O)N[C@@H](CC(N)=O)C(=O)N[C@H](C(=O)NCC(=O)N1CCC[C@H]1C(=O)N[C@@H](CC(N)=O)C(=O)N[C@H](C(=O)N[C@@H](Cc1ccc(O)cc1)C(N)=O)[C@@H](C)O)C(C)C)[C@@H](C)O, Derivative of human amylin; also called compound 32)
